Test results from US20140087995A1 (published 2014).
Numbered stars: 1 amine (or outer) side, 2 acyl side, 3 side chain; on linkers, the order of the positions; unused ones are H or OH. Bridge positions count the residues as written; N and C are the ends. Side chains are listed from the residue outwards. Ends that are not written are not given here. * marks the point of attachment. C20 diacid = O=C(O)CCCCCCCCCCCCCCCCCCC(=O)*; γGlu = O=C(O)[C@H](CCC(=O)[*:2])N[*:1]

T1: human calcitonin receptor (human, UniProt P30988 25-474)
T1 construct: whole, on cells; Assayed as cell membranes of BHK tk'ts 13 cells stably transfected with the human calcitonin receptor (Assay VII); also called hCTR; hCT
T1 sequence (looked up): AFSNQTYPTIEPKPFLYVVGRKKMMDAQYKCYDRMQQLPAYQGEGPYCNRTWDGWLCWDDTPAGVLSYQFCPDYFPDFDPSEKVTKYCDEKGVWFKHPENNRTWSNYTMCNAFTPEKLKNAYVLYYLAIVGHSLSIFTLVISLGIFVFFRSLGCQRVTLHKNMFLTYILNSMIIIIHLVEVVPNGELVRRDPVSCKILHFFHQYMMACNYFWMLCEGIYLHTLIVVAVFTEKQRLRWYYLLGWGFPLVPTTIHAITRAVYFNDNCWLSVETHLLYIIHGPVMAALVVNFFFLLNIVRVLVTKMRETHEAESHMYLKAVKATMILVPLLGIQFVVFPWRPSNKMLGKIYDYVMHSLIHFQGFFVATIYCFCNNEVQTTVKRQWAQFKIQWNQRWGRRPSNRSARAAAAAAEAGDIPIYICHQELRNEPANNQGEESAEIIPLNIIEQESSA

B1: N^ε1-[(4S)-4-carboxy-4-(19-carboxynonadecanoylamino)butanoyl]-[His14,Arg17,Pro21,Pro27,Arg34]-h-amylin (peptide)
peptide: K([γGlu-C20 diacid])CNTATCATQRLAHFLRHSSPNFGAIPSSTNVGRNTY-NH2
modifications: disulfide 2-7; N-terminus assumed
SMILES: CC[C@H](C)[C@H](NC(=O)[C@H](C)NC(=O)CNC(=O)[C@H](Cc1ccccc1)NC(=O)[C@H](CC(N)=O)NC(=O)[C@@H]1CCCN1C(=O)[C@H](CO)NC(=O)[C@H](CO)NC(=O)[C@H](Cc1c[nH]cn1)NC(=O)[C@H](CCCNC(=N)N)NC(=O)[C@H](CC(C)C)NC(=O)[C@H](Cc1ccccc1)NC(=O)[C@H](Cc1c[nH]cn1)NC(=O)[C@H](C)NC(=O)[C@H](CC(C)C)NC(=O)[C@H](CCCNC(=N)N)NC(=O)[C@H](CCC(N)=O)NC(=O)[C@@H](NC(=O)[C@H](C)NC(=O)[C@@H]1CSSC[C@H](NC(=O)[C@@H](N)CCCCNC(=O)CC[C@H](NC(=O)CCCCCCCCCCCCCCCCCCC(=O)O)C(=O)O)C(=O)N[C@@H](CC(N)=O)C(=O)N[C@@H]([C@@H](C)O)C(=O)N[C@@H](C)C(=O)N[C@@H]([C@@H](C)O)C(=O)N1)[C@@H](C)O)C(=O)N1CCC[C@H]1C(=O)N[C@@H](CO)C(=O)N[C@@H](CO)C(=O)N[C@H](C(=O)N[C@@H](CC(N)=O)C(=O)N[C@H](C(=O)NCC(=O)N[C@@H](CCCNC(=N)N)C(=O)N[C@@H](CC(N)=O)C(=O)N[C@H](C(=O)N[C@@H](Cc1ccc(O)cc1)C(N)=O)[C@@H](C)O)C(C)C)[C@@H](C)O
notes: also called compound 85
B2: N^ε1-[(4S)-4-carboxy-4-(19-carboxynonadecanoylamino)butanoyl]-[His14,Arg17,Pro21,Pro27,Pro31]-h-amylin (peptide)
peptide: K([γGlu-C20 diacid])CNTATCATQRLAHFLRHSSPNFGAIPSSTPVGSNTY-NH2
modifications: disulfide 2-7; N-terminus assumed
SMILES: CC[C@H](C)[C@H](NC(=O)[C@H](C)NC(=O)CNC(=O)[C@H](Cc1ccccc1)NC(=O)[C@H](CC(N)=O)NC(=O)[C@@H]1CCCN1C(=O)[C@H](CO)NC(=O)[C@H](CO)NC(=O)[C@H](Cc1c[nH]cn1)NC(=O)[C@H](CCCNC(=N)N)NC(=O)[C@H](CC(C)C)NC(=O)[C@H](Cc1ccccc1)NC(=O)[C@H](Cc1c[nH]cn1)NC(=O)[C@H](C)NC(=O)[C@H](CC(C)C)NC(=O)[C@H](CCCNC(=N)N)NC(=O)[C@H](CCC(N)=O)NC(=O)[C@@H](NC(=O)[C@H](C)NC(=O)[C@@H]1CSSC[C@H](NC(=O)[C@@H](N)CCCCNC(=O)CC[C@H](NC(=O)CCCCCCCCCCCCCCCCCCC(=O)O)C(=O)O)C(=O)N[C@@H](CC(N)=O)C(=O)N[C@@H]([C@@H](C)O)C(=O)N[C@@H](C)C(=O)N[C@@H]([C@@H](C)O)C(=O)N1)[C@@H](C)O)C(=O)N1CCC[C@H]1C(=O)N[C@@H](CO)C(=O)N[C@@H](CO)C(=O)N[C@H](C(=O)N1CCC[C@H]1C(=O)N[C@H](C(=O)NCC(=O)N[C@@H](CO)C(=O)N[C@@H](CC(N)=O)C(=O)N[C@H](C(=O)N[C@@H](Cc1ccc(O)cc1)C(N)=O)[C@@H](C)O)C(C)C)[C@@H](C)O
notes: also called compound 62
B3: N^ε1-[(4S)-4-carboxy-4-(19-carboxynonadecanoylamino)butanoyl]-[His14,Arg17,Pro21,Pro27,His35]-h-amylin (peptide)
peptide: K([γGlu-C20 diacid])CNTATCATQRLAHFLRHSSPNFGAIPSSTNVGSHTY-NH2
modifications: disulfide 2-7; N-terminus assumed
SMILES: CC[C@H](C)[C@H](NC(=O)[C@H](C)NC(=O)CNC(=O)[C@H](Cc1ccccc1)NC(=O)[C@H](CC(N)=O)NC(=O)[C@@H]1CCCN1C(=O)[C@H](CO)NC(=O)[C@H](CO)NC(=O)[C@H](Cc1c[nH]cn1)NC(=O)[C@H](CCCNC(=N)N)NC(=O)[C@H](CC(C)C)NC(=O)[C@H](Cc1ccccc1)NC(=O)[C@H](Cc1c[nH]cn1)NC(=O)[C@H](C)NC(=O)[C@H](CC(C)C)NC(=O)[C@H](CCCNC(=N)N)NC(=O)[C@H](CCC(N)=O)NC(=O)[C@@H](NC(=O)[C@H](C)NC(=O)[C@@H]1CSSC[C@H](NC(=O)[C@@H](N)CCCCNC(=O)CC[C@H](NC(=O)CCCCCCCCCCCCCCCCCCC(=O)O)C(=O)O)C(=O)N[C@@H](CC(N)=O)C(=O)N[C@@H]([C@@H](C)O)C(=O)N[C@@H](C)C(=O)N[C@@H]([C@@H](C)O)C(=O)N1)[C@@H](C)O)C(=O)N1CCC[C@H]1C(=O)N[C@@H](CO)C(=O)N[C@@H](CO)C(=O)N[C@H](C(=O)N[C@@H](CC(N)=O)C(=O)N[C@H](C(=O)NCC(=O)N[C@@H](CO)C(=O)N[C@@H](Cc1c[nH]cn1)C(=O)N[C@H](C(=O)N[C@@H](Cc1ccc(O)cc1)C(N)=O)[C@@H](C)O)C(C)C)[C@@H](C)O
notes: also called compound 66
B4: N^ε1-[(4S)-4-carboxy-4-(19-carboxynonadecanoylamino)butanoyl]-[His14,Arg17,Pro21,Pro27,His34]-h-amylin (peptide)
peptide: K([γGlu-C20 diacid])CNTATCATQRLAHFLRHSSPNFGAIPSSTNVGHNTY-NH2
modifications: disulfide 2-7; N-terminus assumed
SMILES: CC[C@H](C)[C@H](NC(=O)[C@H](C)NC(=O)CNC(=O)[C@H](Cc1ccccc1)NC(=O)[C@H](CC(N)=O)NC(=O)[C@@H]1CCCN1C(=O)[C@H](CO)NC(=O)[C@H](CO)NC(=O)[C@H](Cc1c[nH]cn1)NC(=O)[C@H](CCCNC(=N)N)NC(=O)[C@H](CC(C)C)NC(=O)[C@H](Cc1ccccc1)NC(=O)[C@H](Cc1c[nH]cn1)NC(=O)[C@H](C)NC(=O)[C@H](CC(C)C)NC(=O)[C@H](CCCNC(=N)N)NC(=O)[C@H](CCC(N)=O)NC(=O)[C@@H](NC(=O)[C@H](C)NC(=O)[C@@H]1CSSC[C@H](NC(=O)[C@@H](N)CCCCNC(=O)CC[C@H](NC(=O)CCCCCCCCCCCCCCCCCCC(=O)O)C(=O)O)C(=O)N[C@@H](CC(N)=O)C(=O)N[C@@H]([C@@H](C)O)C(=O)N[C@@H](C)C(=O)N[C@@H]([C@@H](C)O)C(=O)N1)[C@@H](C)O)C(=O)N1CCC[C@H]1C(=O)N[C@@H](CO)C(=O)N[C@@H](CO)C(=O)N[C@H](C(=O)N[C@@H](CC(N)=O)C(=O)N[C@H](C(=O)NCC(=O)N[C@@H](Cc1c[nH]cn1)C(=O)N[C@@H](CC(N)=O)C(=O)N[C@H](C(=O)N[C@@H](Cc1ccc(O)cc1)C(N)=O)[C@@H](C)O)C(C)C)[C@@H](C)O
notes: also called compound 81
B5: N^ε1-[(4S)-4-carboxy-4-[[(4S)-4-carboxy-4-(19-carboxynonadecanoylamino)butanoyl]amino]butanoyl]-[Arg17,Pro21,Pro27,His34]-h-amylin (peptide)
peptide: K([γGlu-γGlu-C20 diacid])CNTATCATQRLANFLRHSSPNFGAIPSSTNVGHNTY-NH2
modifications: disulfide 2-7; N-terminus assumed
SMILES: CC[C@H](C)[C@H](NC(=O)[C@H](C)NC(=O)CNC(=O)[C@H](Cc1ccccc1)NC(=O)[C@H](CC(N)=O)NC(=O)[C@@H]1CCCN1C(=O)[C@H](CO)NC(=O)[C@H](CO)NC(=O)[C@H](Cc1c[nH]cn1)NC(=O)[C@H](CCCNC(=N)N)NC(=O)[C@H](CC(C)C)NC(=O)[C@H](Cc1ccccc1)NC(=O)[C@H](CC(N)=O)NC(=O)[C@H](C)NC(=O)[C@H](CC(C)C)NC(=O)[C@H](CCCNC(=N)N)NC(=O)[C@H](CCC(N)=O)NC(=O)[C@@H](NC(=O)[C@H](C)NC(=O)[C@@H]1CSSC[C@H](NC(=O)[C@@H](N)CCCCNC(=O)CC[C@H](NC(=O)CC[C@H](NC(=O)CCCCCCCCCCCCCCCCCCC(=O)O)C(=O)O)C(=O)O)C(=O)N[C@@H](CC(N)=O)C(=O)N[C@@H]([C@@H](C)O)C(=O)N[C@@H](C)C(=O)N[C@@H]([C@@H](C)O)C(=O)N1)[C@@H](C)O)C(=O)N1CCC[C@H]1C(=O)N[C@@H](CO)C(=O)N[C@@H](CO)C(=O)N[C@H](C(=O)N[C@@H](CC(N)=O)C(=O)N[C@H](C(=O)NCC(=O)N[C@@H](Cc1c[nH]cn1)C(=O)N[C@@H](CC(N)=O)C(=O)N[C@H](C(=O)N[C@@H](Cc1ccc(O)cc1)C(N)=O)[C@@H](C)O)C(C)C)[C@@H](C)O
notes: also called compound 86
B6: N^ε1-[(4S)-4-carboxy-4-[[(4S)-4-carboxy-4-(19-carboxynonadecanoylamino)butanoyl]amino]butanoyl]-[Glu14,Arg17,Pro21,Pro27,Arg34]-h-amylin (peptide)
peptide: K([γGlu-γGlu-C20 diacid])CNTATCATQRLAEFLRHSSPNFGAIPSSTNVGRNTY-NH2
modifications: disulfide 2-7; N-terminus assumed
SMILES: CC[C@H](C)[C@H](NC(=O)[C@H](C)NC(=O)CNC(=O)[C@H](Cc1ccccc1)NC(=O)[C@H](CC(N)=O)NC(=O)[C@@H]1CCCN1C(=O)[C@H](CO)NC(=O)[C@H](CO)NC(=O)[C@H](Cc1c[nH]cn1)NC(=O)[C@H](CCCNC(=N)N)NC(=O)[C@H](CC(C)C)NC(=O)[C@H](Cc1ccccc1)NC(=O)[C@H](CCC(=O)O)NC(=O)[C@H](C)NC(=O)[C@H](CC(C)C)NC(=O)[C@H](CCCNC(=N)N)NC(=O)[C@H](CCC(N)=O)NC(=O)[C@@H](NC(=O)[C@H](C)NC(=O)[C@@H]1CSSC[C@H](NC(=O)[C@@H](N)CCCCNC(=O)CC[C@H](NC(=O)CC[C@H](NC(=O)CCCCCCCCCCCCCCCCCCC(=O)O)C(=O)O)C(=O)O)C(=O)N[C@@H](CC(N)=O)C(=O)N[C@@H]([C@@H](C)O)C(=O)N[C@@H](C)C(=O)N[C@@H]([C@@H](C)O)C(=O)N1)[C@@H](C)O)C(=O)N1CCC[C@H]1C(=O)N[C@@H](CO)C(=O)N[C@@H](CO)C(=O)N[C@H](C(=O)N[C@@H](CC(N)=O)C(=O)N[C@H](C(=O)NCC(=O)N[C@@H](CCCNC(=N)N)C(=O)N[C@@H](CC(N)=O)C(=O)N[C@H](C(=O)N[C@@H](Cc1ccc(O)cc1)C(N)=O)[C@@H](C)O)C(C)C)[C@@H](C)O
notes: also called compound 88

Molecular target: T1, human calcitonin receptor
Test: IC50 at hCTR divided by IC50 at hAmylin-R (SPA competition assays V and VII)
Outline: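 Membranes (35 ng/μL final) + SPA beads, 50 mM Hepes pH 7.4 buffer with 1 mM CaCl2, 5 mM MgCl₂, 0.1% OA, 0.02% Tween20; 120 min, 25° C, shaking; centrifuged, counted; IC₅₀ by one-site binding competition.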

Ratio hCT/hAmylin binding	Binder
91.8	B1
63	B2
45.5	B3
87.2	B4
159	B5
46.5	B6

Molecular target: T1, human calcitonin receptor
Test: SPA competition vs 125I-calcitonin, membranes of BHK cells with human calcitonin receptor (Assay VII)
Outline: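 BHK hCTR membranes 35 ng/μL + SPA beads 0.05 mg/well; buffer 50 mM Hepes pH 7.4, 1 mM CaCl2, 5 mM MgCl₂, 0.1% OA, 0.02% Tween20. 120 min, 25° C., shaking. Scintillation count; IC50 by one-site binding competition.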

IC50	Binder
80.4 nM	B1
6.17 nM	B2
18 nM	B3
23.6 nM	B4
133 nM	B5
34.9 nM	B6
